Measurements from patent US20180094075A1 (Pfizer, published 2018).

Tests used:
[1] = molecular target: human PTK7 expressed on cells (cancer cell lines with endogenous PTK7; HEK293T-PTK7 over-expressing cells) (human) (UniProt Q13308); assay: flow cytometry, Hs578T cells, 10 µg/ml Ab
[2] = molecular target: human PTK7 expressed on cells (cancer cell lines with endogenous PTK7; HEK293T-PTK7 over-expressing cells) (human) (UniProt Q13308); assay: flow cytometry, MV411 cells, 10 µg/ml Ab
[3] = molecular target: human PTK7 expressed on cells (cancer cell lines with endogenous PTK7; HEK293T-PTK7 over-expressing cells) (human) (UniProt Q13308); assay: flow cytometry, H1975 cells, 10 µg/ml Ab
[4] = molecular target: human PTK7 expressed on cells (cancer cell lines with endogenous PTK7; HEK293T-PTK7 over-expressing cells) (human) (UniProt Q13308); assay: flow cytometry, HEL cells, 10 µg/ml Ab
[5] = molecular target: human PTK7 expressed on cells (cancer cell lines with endogenous PTK7; HEK293T-PTK7 over-expressing cells) (human) (UniProt Q13308); assay: flow cytometry, MDAMB436 cells, 10 µg/ml Ab
[6] = molecular target: human PTK7 expressed on cells (cancer cell lines with endogenous PTK7; HEK293T-PTK7 over-expressing cells) (human) (UniProt Q13308); assay: flow cytometry, KG1 cells, 10 µg/ml Ab
[7] = molecular target: human PTK7 expressed on cells (cancer cell lines with endogenous PTK7; HEK293T-PTK7 over-expressing cells) (human) (UniProt Q13308); assay: flow cytometry, HL60 cells, 10 µg/ml Ab
[8] = molecular target: human PTK7 expressed on cells (cancer cell lines with endogenous PTK7; HEK293T-PTK7 over-expressing cells) (human) (UniProt Q13308); assay: flow cytometry, SKBR3 cells, 10 µg/ml Ab
[9] = molecular target: human PTK7 expressed on cells (cancer cell lines with endogenous PTK7; HEK293T-PTK7 over-expressing cells) (human) (UniProt Q13308); assay: flow cytometry, H661 cells, 10 µg/ml Ab
[10] = molecular target: human PTK7 expressed on cells (cancer cell lines with endogenous PTK7; HEK293T-PTK7 over-expressing cells) (human) (UniProt Q13308); assay: flow cytometry, H1048 cells, 10 µg/ml Ab
[11] = molecular target: human PTK7 expressed on cells (cancer cell lines with endogenous PTK7; HEK293T-PTK7 over-expressing cells) (human) (UniProt Q13308); assay: flow cytometry, EKVX cells, 10 µg/ml Ab
[12] = molecular target: human PTK7 expressed on cells (cancer cell lines with endogenous PTK7; HEK293T-PTK7 over-expressing cells) (human) (UniProt Q13308); assay: flow cytometry, RPMI8226 cells, 10 µg/ml Ab
[13] = molecular target: human PTK7 expressed on cells (cancer cell lines with endogenous PTK7; HEK293T-PTK7 over-expressing cells) (human) (UniProt Q13308); assay: flow cytometry, H520 cells, 10 µg/ml Ab
[14] = molecular target: human PTK7 expressed on cells (cancer cell lines with endogenous PTK7; HEK293T-PTK7 over-expressing cells) (human) (UniProt Q13308); assay: flow cytometry, H358 cells, 10 µg/ml Ab
[15] = molecular target: human PTK7 expressed on cells (cancer cell lines with endogenous PTK7; HEK293T-PTK7 over-expressing cells) (human) (UniProt Q13308); assay: flow cytometry, U937 cells, 10 µg/ml Ab
[16] = molecular target: human PTK7 expressed on cells (cancer cell lines with endogenous PTK7; HEK293T-PTK7 over-expressing cells) (human) (UniProt Q13308); assay: flow cytometry, H596 cells, 10 µg/ml Ab
[17] = molecular target: human PTK7 expressed on cells (cancer cell lines with endogenous PTK7; HEK293T-PTK7 over-expressing cells) (human) (UniProt Q13308); assay: flow cytometry, HCC1937 cells, 10 µg/ml Ab
[18] = molecular target: human PTK7 expressed on cells (cancer cell lines with endogenous PTK7; HEK293T-PTK7 over-expressing cells) (human) (UniProt Q13308); assay: flow cytometry, HCC38 cells, 10 µg/ml Ab
[19] = molecular target: human PTK7 expressed on cells (cancer cell lines with endogenous PTK7; HEK293T-PTK7 over-expressing cells) (human) (UniProt Q13308); assay: flow cytometry, Raji cells, 10 µg/ml Ab
[20] = molecular target: human PTK7 expressed on cells (cancer cell lines with endogenous PTK7; HEK293T-PTK7 over-expressing cells) (human) (UniProt Q13308); assay: flow cytometry, HCT116 cells, 10 µg/ml Ab
[21] = molecular target: human PTK7 expressed on cells (cancer cell lines with endogenous PTK7; HEK293T-PTK7 over-expressing cells) (human) (UniProt Q13308); assay: flow cytometry, MDAMB361-DYT2 cells, 10 µg/ml Ab
[22] = molecular target: human PTK7 expressed on cells (cancer cell lines with endogenous PTK7; HEK293T-PTK7 over-expressing cells) (human) (UniProt Q13308); assay: flow cytometry, ASPC1 cells (negligible PTK7 expression by immunoblot), 10 µg/ml Ab
[23] = molecular target: human PTK7 expressed on cells (cancer cell lines with endogenous PTK7; HEK293T-PTK7 over-expressing cells) (human) (UniProt Q13308); assay: flow cytometry, DU4475 cells, 10 µg/ml Ab
[24] = molecular target: human PTK7 expressed on cells (cancer cell lines with endogenous PTK7; HEK293T-PTK7 over-expressing cells) (human) (UniProt Q13308); assay: flow cytometry, RL cells, 10 µg/ml Ab
[25] = molecular target: human PTK7 expressed on cells (cancer cell lines with endogenous PTK7; HEK293T-PTK7 over-expressing cells) (human) (UniProt Q13308); assay: flow cytometry, HCC827 cells, 10 µg/ml Ab
[26] = molecular target: human PTK7 expressed on cells (cancer cell lines with endogenous PTK7; HEK293T-PTK7 over-expressing cells) (human) (UniProt Q13308); assay: flow cytometry, H69 cells, 10 µg/ml Ab
[27] = molecular target: human PTK7 expressed on cells (cancer cell lines with endogenous PTK7; HEK293T-PTK7 over-expressing cells) (human) (UniProt Q13308); assay: flow cytometry, Hs700T cells, 10 µg/ml Ab
[28] = molecular target: human PTK7 expressed on cells (cancer cell lines with endogenous PTK7; HEK293T-PTK7 over-expressing cells) (human) (UniProt Q13308); assay: flow cytometry, H526 cells, 10 µg/ml Ab

Chain of human PTK7 expressed on cells (cancer cell lines with endogenous PTK7; HEK293T-PTK7 over-expressing cells) (human) (Q13308 31-1070 L93P limits assumed): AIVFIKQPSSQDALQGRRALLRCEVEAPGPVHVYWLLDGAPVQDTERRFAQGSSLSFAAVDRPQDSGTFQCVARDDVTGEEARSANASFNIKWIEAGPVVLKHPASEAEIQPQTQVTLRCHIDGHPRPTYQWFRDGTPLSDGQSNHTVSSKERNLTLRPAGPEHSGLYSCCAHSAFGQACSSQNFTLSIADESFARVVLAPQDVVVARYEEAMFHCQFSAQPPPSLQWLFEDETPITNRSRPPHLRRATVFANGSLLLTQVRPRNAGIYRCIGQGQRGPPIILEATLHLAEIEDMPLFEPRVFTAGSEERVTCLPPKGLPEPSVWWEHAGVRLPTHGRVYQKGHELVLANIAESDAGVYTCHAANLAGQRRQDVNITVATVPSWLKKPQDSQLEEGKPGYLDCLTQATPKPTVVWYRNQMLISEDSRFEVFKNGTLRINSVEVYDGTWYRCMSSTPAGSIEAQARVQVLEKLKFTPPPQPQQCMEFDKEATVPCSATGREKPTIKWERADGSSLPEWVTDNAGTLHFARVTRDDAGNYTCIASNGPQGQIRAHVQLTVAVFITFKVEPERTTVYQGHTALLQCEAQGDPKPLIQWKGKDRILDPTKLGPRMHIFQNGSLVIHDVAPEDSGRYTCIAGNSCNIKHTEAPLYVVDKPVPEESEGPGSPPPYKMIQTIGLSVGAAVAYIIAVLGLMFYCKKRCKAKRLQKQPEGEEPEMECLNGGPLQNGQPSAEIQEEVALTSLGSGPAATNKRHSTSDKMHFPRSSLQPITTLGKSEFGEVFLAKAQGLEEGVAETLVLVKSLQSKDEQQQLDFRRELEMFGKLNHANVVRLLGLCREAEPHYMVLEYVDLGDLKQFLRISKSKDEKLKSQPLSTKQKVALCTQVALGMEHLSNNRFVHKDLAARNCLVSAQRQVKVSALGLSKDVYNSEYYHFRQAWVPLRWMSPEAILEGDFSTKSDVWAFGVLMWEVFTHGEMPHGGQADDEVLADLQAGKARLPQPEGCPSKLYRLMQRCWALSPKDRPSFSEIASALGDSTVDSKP

Negative Control Ab (Table 8) (antibody)
Mean Fluorescent Intensity [1]: 2.7
Mean Fluorescent Intensity [2]: 7.7
Mean Fluorescent Intensity [3]: 4.8
Mean Fluorescent Intensity [4]: 15.7
Mean Fluorescent Intensity [5]: 3.5
Mean Fluorescent Intensity [6]: 5.2
Mean Fluorescent Intensity [7]: 10.9
Mean Fluorescent Intensity [8]: 14.9
Mean Fluorescent Intensity [9]: 3.8
Mean Fluorescent Intensity [10]: 4.4
Mean Fluorescent Intensity [11]: 3.1
Mean Fluorescent Intensity [12]: 8.3
Mean Fluorescent Intensity [13]: 4.8
Mean Fluorescent Intensity [14]: 4.5
Mean Fluorescent Intensity [15]: 5
Mean Fluorescent Intensity [16]: 21.4
Mean Fluorescent Intensity [17]: 7.8
Mean Fluorescent Intensity [18]: 7.2
Mean Fluorescent Intensity [19]: 20.3
Mean Fluorescent Intensity [20]: 17.8
Mean Fluorescent Intensity [21]: 8.7
Mean Fluorescent Intensity [22]: 2.6
Mean Fluorescent Intensity [23]: 3.8
Mean Fluorescent Intensity [24]: 29.8
Mean Fluorescent Intensity [25]: 5.8
Mean Fluorescent Intensity [26]: 11.2
Mean Fluorescent Intensity [27]: 4.9
Mean Fluorescent Intensity [28]: 12.2
